What all share (conditions): both partners purified
Experiment [1] has as its target T1, hen egg lysozyme (Gallus gallus (hen), UniProt P00698).
T1 construct: hen egg lysozyme (HEL), lysozyme C of the chicken; No supplier is named for HEL; also called HEL; antigen
In words: ELISA; HEL or BSA (2 μg/mL in 100 μL PBS) coated on microplate wells, 16 h 4 °C; sdAb or mini Q-body added at 2 μg/mL, 1 h 37 °C; bound protein probed with anti-His-HRP. For orientation: ELISA stands for enzyme-linked immunosorbent assay.

The next experiment concerns the target T2, bovine serum albumin (Bos taurus (bovine), UniProt P02769).
T2 construct: bovine serum albumin (BSA); No supplier is named for BSA; also called BSA; control antigen
The experiment can be described thus: other fluorescence titration; de-quenching at one concentration: 10 ng mini Q-body in 250 μL PBST; 10 μM antigen added, measured after 5 min; BSA as control antigen.

The target of experiment [2] is T1, hen egg lysozyme. The experiment can be described thus: other fluorescence titration; de-quenching dose response: 10 ng mini Q-body in 250 μL PBST in a quartz cell; antigen added stepwise (0, 1 nM to 10 μM) at 5 min intervals; EC50 by 4-parameter logistic fit.

T1 sequence (P00698 19-147): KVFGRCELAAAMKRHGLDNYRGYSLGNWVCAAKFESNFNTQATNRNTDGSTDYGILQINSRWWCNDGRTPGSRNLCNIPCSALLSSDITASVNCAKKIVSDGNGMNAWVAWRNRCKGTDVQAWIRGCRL
T2 sequence (P02769 25-607): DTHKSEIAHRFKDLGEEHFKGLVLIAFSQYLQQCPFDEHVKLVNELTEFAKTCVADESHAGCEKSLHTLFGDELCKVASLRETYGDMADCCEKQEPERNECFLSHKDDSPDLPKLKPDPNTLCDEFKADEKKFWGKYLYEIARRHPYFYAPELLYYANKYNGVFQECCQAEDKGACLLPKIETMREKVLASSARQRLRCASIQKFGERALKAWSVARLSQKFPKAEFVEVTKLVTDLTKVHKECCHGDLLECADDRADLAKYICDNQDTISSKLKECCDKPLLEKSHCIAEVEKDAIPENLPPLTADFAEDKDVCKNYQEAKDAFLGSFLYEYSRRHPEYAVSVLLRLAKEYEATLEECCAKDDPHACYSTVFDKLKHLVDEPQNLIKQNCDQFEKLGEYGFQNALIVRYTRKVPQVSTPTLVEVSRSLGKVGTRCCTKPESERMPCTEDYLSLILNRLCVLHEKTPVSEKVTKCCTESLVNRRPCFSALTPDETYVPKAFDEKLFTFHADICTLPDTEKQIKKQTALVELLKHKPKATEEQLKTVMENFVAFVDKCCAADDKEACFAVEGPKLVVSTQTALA

B1: TAMRA-C5-labeled C3 W47F mini Q-body (VHH)
VHH: EVQLLESGGGLVQPGGSLRLSCAASGFRDSDEDMGWVRQAPGKGLEFVSSIYGESGSTYYADSVKGRFTISRDNSKNTLYLQMNSLRAEDTAVYYCASYNYYYNVFDYWGQGTLVTVSS
notes: as the VH of m1 with W47F; Same chain as m10 with the dye on the Cys-tag; also called W47F (after labeling with TAMRA-C5); source: labeled with TAMRA-C5; not shown: His-tag, C-terminal, kept
On to B1, for which the binding result in the experiment with hen egg lysozyme [1] was “binds”.

B2: C3 mini Q-body labeled with TAMRA-C5 (VHH)
VHH: EVQLLESGGGLVQPGGSLRLSCAASGFRDSDEDMGWVRQAPGKGLEWVSSIYGESGSTYYADSVKGRFTISRDNSKNTLYLQMNSLRAEDTAVYYCASYNYYYNVFDYWGQGTLVTVSS
notes: as the VH of m1; Same chain as m1 with the dye on the Cys-tag; also called TAMRA-C5-labeled C3 mini Q-body; TAMRA-labeled C3WT; not shown: His-tag, C-terminal, kept
As to B2, the binding result with bovine serum albumin is recorded as “no binding”. In addition, the EC50 (usually the concentration needed to bring the measured effect to its halfway point) in the experiment with hen egg lysozyme [2] was determined as 263 nM.

B3: C3 mutant W36F (unlabeled) (VHH)
VHH: EVQLLESGGGLVQPGGSLRLSCAASGFRDSDEDMGFVRQAPGKGLEWVSSIYGESGSTYYADSVKGRFTISRDNSKNTLYLQMNSLRAEDTAVYYCASYNYYYNVFDYWGQGTLVTVSS
notes: as the VH of m1 with W36F; not shown: His-tag, C-terminal, kept
Consider B3, for which the binding result with hen egg lysozyme [1] is given as “no binding (tested: 2 μg/mL)”.

B4: C3 mini Q-body labeled with TAMRA-C6(6) (VHH)
VHH: EVQLLESGGGLVQPGGSLRLSCAASGFRDSDEDMGWVRQAPGKGLEWVSSIYGESGSTYYADSVKGRFTISRDNSKNTLYLQMNSLRAEDTAVYYCASYNYYYNVFDYWGQGTLVTVSS
notes: as the VH of m1; Same chain as m1 with the dye on the Cys-tag; not shown: His-tag, C-terminal, kept
As for B4, the binding result with bovine serum albumin is recorded as “no binding”. Also, the EC50 in the experiment with hen egg lysozyme [2] is 362 nM.

B5: C3 mini Q-body labeled with TAMRA-C2 (VHH)
VHH: EVQLLESGGGLVQPGGSLRLSCAASGFRDSDEDMGWVRQAPGKGLEWVSSIYGESGSTYYADSVKGRFTISRDNSKNTLYLQMNSLRAEDTAVYYCASYNYYYNVFDYWGQGTLVTVSS
notes: as for B4
Turning to B5, in the experiment with bovine serum albumin, the binding result is recorded as “no binding”. In the experiment with hen egg lysozyme [2], the EC50 stood at 50 nM.

B6: C3 mini Q-body labeled with rhodamine 6G (R6G-C5) (VHH)
VHH: EVQLLESGGGLVQPGGSLRLSCAASGFRDSDEDMGWVRQAPGKGLEWVSSIYGESGSTYYADSVKGRFTISRDNSKNTLYLQMNSLRAEDTAVYYCASYNYYYNVFDYWGQGTLVTVSS
notes: as the VH of m1; Same chain as m1 with the dye on the Cys-tag; also called R6G-C5 Q-body; Rhodamine 6G-labeled mini Q-body; not shown: His-tag, C-terminal, kept
Take B6: the binding result in the experiment with bovine serum albumin is “no binding”. In addition, in the experiment with hen egg lysozyme [2], the EC50 was determined as 397 nM.

B7: C3 mutant W47F (unlabeled) (VHH)
VHH: EVQLLESGGGLVQPGGSLRLSCAASGFRDSDEDMGWVRQAPGKGLEFVSSIYGESGSTYYADSVKGRFTISRDNSKNTLYLQMNSLRAEDTAVYYCASYNYYYNVFDYWGQGTLVTVSS
notes: as the VH of m1 with W47F; not shown: His-tag, C-terminal, kept
Turning to B7, the binding result with hen egg lysozyme [1] is given as “binds”.

B8: C3 mini Q-body labeled with TAMRA-C6(5) (VHH)
VHH: EVQLLESGGGLVQPGGSLRLSCAASGFRDSDEDMGWVRQAPGKGLEWVSSIYGESGSTYYADSVKGRFTISRDNSKNTLYLQMNSLRAEDTAVYYCASYNYYYNVFDYWGQGTLVTVSS
notes: as for B4
Take B8: the binding result in the experiment with bovine serum albumin was “no binding”. The same molecule had an EC50 with hen egg lysozyme [2] of 401 nM.

B9: C3 mini Q-body labeled with TAMRA-C0 (VHH)
VHH: EVQLLESGGGLVQPGGSLRLSCAASGFRDSDEDMGWVRQAPGKGLEWVSSIYGESGSTYYADSVKGRFTISRDNSKNTLYLQMNSLRAEDTAVYYCASYNYYYNVFDYWGQGTLVTVSS
notes: as for B4
As for B9, the binding result with bovine serum albumin was “no binding”. Besides, the EC50 with hen egg lysozyme [2] worked out at 39 nM.

B10: C3 mini Q-body labeled with ATTO520 (VHH)
VHH: EVQLLESGGGLVQPGGSLRLSCAASGFRDSDEDMGWVRQAPGKGLEWVSSIYGESGSTYYADSVKGRFTISRDNSKNTLYLQMNSLRAEDTAVYYCASYNYYYNVFDYWGQGTLVTVSS
notes: as the VH of m1; Same chain as m1 with the dye on the Cys-tag; also called ATTO520-C2; not shown: His-tag, C-terminal, kept
With B10, the binding result with bovine serum albumin was “no binding”. In addition, the EC50 with hen egg lysozyme [2] came out at 276 nM.
